The source of these data is publication PMC5042399.

In assay [1] the target is DNA topoisomerase IIα (TOP2A), recombinant (UniProt P11388).
The target in assay [2] is DNA topoisomerase I (TOP1), full-length recombinant (UniProt P11387).
Sequence of UniProt P11387 (P11387 whole entry): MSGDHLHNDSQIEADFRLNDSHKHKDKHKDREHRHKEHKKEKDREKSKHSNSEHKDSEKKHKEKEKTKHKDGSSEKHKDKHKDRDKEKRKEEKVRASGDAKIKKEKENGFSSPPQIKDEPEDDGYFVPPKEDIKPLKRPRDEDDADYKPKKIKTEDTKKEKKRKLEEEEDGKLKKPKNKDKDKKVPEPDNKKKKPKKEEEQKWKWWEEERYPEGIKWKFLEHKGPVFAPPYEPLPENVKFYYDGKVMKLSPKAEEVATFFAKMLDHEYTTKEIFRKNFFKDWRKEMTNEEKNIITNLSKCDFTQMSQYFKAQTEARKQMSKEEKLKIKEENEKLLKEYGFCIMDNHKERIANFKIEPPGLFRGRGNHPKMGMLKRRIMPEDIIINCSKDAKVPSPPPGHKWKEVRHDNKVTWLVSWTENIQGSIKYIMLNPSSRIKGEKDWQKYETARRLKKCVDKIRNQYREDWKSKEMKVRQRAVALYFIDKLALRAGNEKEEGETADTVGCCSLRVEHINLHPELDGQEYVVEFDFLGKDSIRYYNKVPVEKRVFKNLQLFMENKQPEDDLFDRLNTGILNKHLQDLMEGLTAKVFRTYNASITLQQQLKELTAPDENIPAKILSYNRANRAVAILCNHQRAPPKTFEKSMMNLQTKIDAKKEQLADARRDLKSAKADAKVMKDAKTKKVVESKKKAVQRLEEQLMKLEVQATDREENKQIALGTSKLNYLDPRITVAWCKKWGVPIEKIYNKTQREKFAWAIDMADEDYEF

Sequence of UniProt P11388 (P11388 whole entry): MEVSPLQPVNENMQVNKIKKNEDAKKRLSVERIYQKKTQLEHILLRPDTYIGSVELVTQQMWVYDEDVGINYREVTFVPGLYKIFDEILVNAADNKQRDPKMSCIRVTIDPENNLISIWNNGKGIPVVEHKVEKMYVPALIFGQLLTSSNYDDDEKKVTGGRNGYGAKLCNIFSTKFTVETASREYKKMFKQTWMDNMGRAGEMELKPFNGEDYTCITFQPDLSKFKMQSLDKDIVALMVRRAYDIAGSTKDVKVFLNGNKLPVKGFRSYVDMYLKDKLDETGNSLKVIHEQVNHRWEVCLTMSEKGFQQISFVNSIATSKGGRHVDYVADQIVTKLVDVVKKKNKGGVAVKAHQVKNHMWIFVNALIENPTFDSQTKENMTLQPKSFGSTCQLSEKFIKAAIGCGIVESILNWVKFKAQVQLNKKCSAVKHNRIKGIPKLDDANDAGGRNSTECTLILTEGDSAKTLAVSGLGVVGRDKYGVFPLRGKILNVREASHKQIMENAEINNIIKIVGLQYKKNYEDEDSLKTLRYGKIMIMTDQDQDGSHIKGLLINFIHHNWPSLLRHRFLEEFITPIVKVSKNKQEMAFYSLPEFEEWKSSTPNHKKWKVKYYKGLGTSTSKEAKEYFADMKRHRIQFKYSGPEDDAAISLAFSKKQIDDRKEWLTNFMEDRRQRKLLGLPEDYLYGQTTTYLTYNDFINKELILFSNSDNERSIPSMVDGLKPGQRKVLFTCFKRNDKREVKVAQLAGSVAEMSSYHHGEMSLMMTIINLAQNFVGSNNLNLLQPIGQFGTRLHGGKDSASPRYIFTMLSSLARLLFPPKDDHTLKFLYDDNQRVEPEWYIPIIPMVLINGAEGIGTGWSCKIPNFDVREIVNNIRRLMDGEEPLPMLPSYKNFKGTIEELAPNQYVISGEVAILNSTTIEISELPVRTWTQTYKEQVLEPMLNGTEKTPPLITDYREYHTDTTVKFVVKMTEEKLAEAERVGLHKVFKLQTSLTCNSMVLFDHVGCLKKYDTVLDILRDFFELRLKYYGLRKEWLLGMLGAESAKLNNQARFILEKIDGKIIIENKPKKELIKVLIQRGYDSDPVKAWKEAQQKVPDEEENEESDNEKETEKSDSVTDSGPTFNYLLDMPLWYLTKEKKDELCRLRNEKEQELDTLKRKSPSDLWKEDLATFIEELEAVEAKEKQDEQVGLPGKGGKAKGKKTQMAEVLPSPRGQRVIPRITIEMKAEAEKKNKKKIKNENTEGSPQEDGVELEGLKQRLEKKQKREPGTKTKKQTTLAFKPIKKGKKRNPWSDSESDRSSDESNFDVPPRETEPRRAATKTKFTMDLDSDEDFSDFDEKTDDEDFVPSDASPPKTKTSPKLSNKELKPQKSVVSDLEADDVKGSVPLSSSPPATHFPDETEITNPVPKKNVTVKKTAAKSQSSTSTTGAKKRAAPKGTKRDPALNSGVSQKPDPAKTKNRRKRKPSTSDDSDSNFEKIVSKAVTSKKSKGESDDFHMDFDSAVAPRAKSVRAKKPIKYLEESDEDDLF

As for “BLM-Δ1332–1349, recombinant (from UniProt P54132 1-1417) (enzyme)”, in assay [1], the stimulation of BLM unwinding of dsDNA substrate by 7 nM TOP2A (fold change relative to minus TOP2A) came to 3 fold. In the case of “BLM wild-type (WT), recombinant (from UniProt P54132 1-1417) (enzyme)”, the stimulation of BLM unwinding of RNA:DNA substrate by a two-fold molar excess of TOP1 (specific activity with against without TOP1) in assay [2] came out at 1.5 fold.
